Patent US20250122300A1 (INSERM INSTITUT NATIONAL DE LA SANT ET DE LA RECHERCHE M …, published 2025)
Substitutions are numbered along the chain they refer to. Blank lines part the entries; values can stand above or below the molecule they belong to.

Experiments:
[1] = molecular target: macaque CD45RC (cynomolgus macaque); assay: flow cytometry, cynomolgus macaque PBMC, CD3- cells
[2] = molecular target: macaque CD45RC (cynomolgus macaque); assay: flow cytometry, cynomolgus macaque PBMC, CD3+ cells (p-1488)
human CD45RC [3] = molecular target: T1, human CD45RC (human, UniProt P08575 26-1306); assay: flow cytometry, human whole blood; CD8+ T [1]
T1 construct: In flow cytometry the protein is on human PBMC (which may also carry other CD45 isoforms with the C determinant); in the SPR assay it is in solubilised membranes of CD45RC-high PBMC or of CHO cells transfected with CD45RC; also called hCD45RC
T1 sequence: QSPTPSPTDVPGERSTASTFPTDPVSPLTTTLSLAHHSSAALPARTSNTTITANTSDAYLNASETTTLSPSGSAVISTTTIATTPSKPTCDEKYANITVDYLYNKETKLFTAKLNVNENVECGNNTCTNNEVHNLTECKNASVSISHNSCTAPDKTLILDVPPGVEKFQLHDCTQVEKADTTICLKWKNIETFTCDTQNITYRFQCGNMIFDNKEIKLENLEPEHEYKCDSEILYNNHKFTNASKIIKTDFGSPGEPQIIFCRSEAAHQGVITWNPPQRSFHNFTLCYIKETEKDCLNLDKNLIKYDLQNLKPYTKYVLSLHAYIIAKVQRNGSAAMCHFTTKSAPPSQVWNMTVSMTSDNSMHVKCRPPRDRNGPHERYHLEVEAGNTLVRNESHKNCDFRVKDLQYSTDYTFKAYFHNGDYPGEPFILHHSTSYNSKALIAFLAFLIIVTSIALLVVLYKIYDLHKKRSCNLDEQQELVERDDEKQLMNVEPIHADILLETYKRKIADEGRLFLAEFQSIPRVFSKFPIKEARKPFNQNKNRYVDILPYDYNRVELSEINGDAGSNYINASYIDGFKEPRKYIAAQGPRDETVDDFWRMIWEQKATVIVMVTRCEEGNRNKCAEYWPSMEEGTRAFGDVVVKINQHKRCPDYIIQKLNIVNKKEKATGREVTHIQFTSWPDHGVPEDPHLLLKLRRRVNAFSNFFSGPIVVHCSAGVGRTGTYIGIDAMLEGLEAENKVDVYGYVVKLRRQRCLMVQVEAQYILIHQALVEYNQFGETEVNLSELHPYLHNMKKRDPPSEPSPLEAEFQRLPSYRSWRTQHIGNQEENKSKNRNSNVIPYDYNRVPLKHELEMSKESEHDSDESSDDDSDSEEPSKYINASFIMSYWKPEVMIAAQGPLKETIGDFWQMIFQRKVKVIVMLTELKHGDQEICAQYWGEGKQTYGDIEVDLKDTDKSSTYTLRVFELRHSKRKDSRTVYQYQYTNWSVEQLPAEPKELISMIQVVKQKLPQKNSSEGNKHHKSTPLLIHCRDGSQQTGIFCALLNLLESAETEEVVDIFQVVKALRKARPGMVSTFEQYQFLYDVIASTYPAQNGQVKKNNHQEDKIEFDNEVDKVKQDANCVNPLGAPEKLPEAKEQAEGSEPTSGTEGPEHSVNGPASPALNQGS

human CD45RC [4] = molecular target: T1, human CD45RC; assay: flow cytometry, human whole blood; ILC1 [2]
human CD45RC [5] = molecular target: T1, human CD45RC; assay: flow cytometry, human whole blood; Eosinophils [3]
human CD45RC [6] = molecular target: T1, human CD45RC; assay: flow cytometry, human whole blood; mDC [3]
human CD45RC [7] = molecular target: T1, human CD45RC; assay: flow cytometry, human whole blood; Basophils [3]
human CD45RC [8] = molecular target: T1, human CD45RC; assay: flow cytometry, human whole blood; pDC [3]
human CD45RC [9] = molecular target: T1, human CD45RC; assay: flow cytometry, human whole blood; ILC3 [2]
human CD45RC [10] = molecular target: T1, human CD45RC; assay: flow cytometry, human whole blood; Monocytes CD14highCD16- [2]
human CD45RC [11] = molecular target: T1, human CD45RC; assay: flow cytometry, human whole blood; Monocytes CD14+ [2]
human CD45RC [12] = molecular target: T1, human CD45RC; assay: flow cytometry, human whole blood; CD4+ Treg (CD25+CD127-) [1]
human CD45RC [13] = molecular target: T1, human CD45RC; assay: flow cytometry, human whole blood; CD3+ TCRgd [1]
human CD45RC [14] = molecular target: T1, human CD45RC; assay: flow cytometry, human whole blood; NKT [2]
human CD45RC [15] = molecular target: T1, human CD45RC; assay: flow cytometry, human whole blood; B cells [1]
human CD45RC [16] = molecular target: T1, human CD45RC; assay: flow cytometry, human whole blood; NK [1]
human CD45RC [17] = molecular target: T1, human CD45RC; assay: flow cytometry, human whole blood; iNKT [2]
human CD45RC [18] = molecular target: T1, human CD45RC; assay: flow cytometry, human whole blood; T cells [1]
human CD45RC [19] = molecular target: T1, human CD45RC; assay: flow cytometry, human whole blood; CD3+ TCRab [1]
human CD45RC [20] = molecular target: T1, human CD45RC; assay: flow cytometry, human whole blood; Neutrophils [3]
human CD45RC [21] = molecular target: T1, human CD45RC; assay: flow cytometry, human whole blood; ILC2 [2]
human CD45RC [22] = molecular target: T1, human CD45RC; assay: flow cytometry, human whole blood; MAIT [2]
human CD45RC [23] = molecular target: T1, human CD45RC; assay: flow cytometry, human whole blood; CD4+ T [1]
human CD45RC [24] = molecular target: T1, human CD45RC; assay: flow cytometry, human whole blood; Monocytes CD14intCD16+ [3]
[25] = molecular target: macaque CD45RC (cynomolgus macaque); assay: flow cytometry, cynomolgus macaque PBMC, CD3+ cells (p-1488); 10 µg/ml (p-1486)
[26] = molecular target: macaque CD45RC (cynomolgus macaque); assay: flow cytometry, cynomolgus macaque PBMC, CD3- cells; 10 µg/ml (p-1486)
human CD45RC [27] = molecular target: T1, human CD45RC; assay: SPR (BIAcore 3000 / T200), ABIS-45RC immobilised on CM5 chip, solubilised membranes of CD45RC-high PBMC or CD45RC-transfected CHO cells as analyte, 25 C, single cycle kinetics
From the text: Briefly, 1×10⁷ CD45RC^high PBMCs or CHO cells expressing CD45RC after plasmid transfection were solubilized using the Mem-PER membrane isolation kit (Thermo-fisher).

B1: Anti-45RC Variant A (antibody, human IgG1, kappa, V domains shown)
VH: QVQLVQSGAEVKKPGASVKVSCKASGYTFTNYYIGWVRQAPGQGLEWIGDIFPGGDYANSNEKFKGRVTLTADTSISTAYMELSRLRSDDTVVYYCVRRNFDYWGQGTLVTVSS
VL: DIQLTQSPSFLSASVGDRVTITCSASSSVSYMHWFQQKPGKAPKLWIYNTSNLPSGVPSRFSGSGSGTEYTLTISSLQPEDFATYYCQQRSSYPLTFGGGTKVEIKR
% of cells CD45RC+ [25]: 17.2%
% of cells CD45RC+ [26]: 75.6%

B2: Anti-45RC Variant A3 (antibody, human IgG1, kappa, V domains shown)
VH: B1 VH with D56G, A58T, S60Y, N61A, K65Q
VL: B1 VL with S24R, F35Y
% of cells CD45RC+ [25]: 15.2%
% of cells CD45RC+ [26]: 82.6%

B3: Anti-45RC Variant A1 (antibody, human IgG1, kappa, V domains shown)
VH: B1 VH with A58T, S60Y, N61A, K65Q
VL: B1 VL with S24R, F35Y
% of cells CD45RC+ [25]: 15.6%
% of cells CD45RC+ [26]: 76.3%

B4: ABIS-45RC (antibody, mouse IgG1, kappa, V domains shown)
VH: QVQLQQSGAELVRPGTSVKMSCKAAGYTFTNYYIGWVKQRPGHGLEWIGDIFPGGDYANSNEKFKGKATLTADTSSSTAYMQLSSLTSEDSAIYYCVRRNFDYWGQGTTLTVSS
VL: QIVLTQSPTIMSASPGEKVTITCSASSSVSYMHWFQQKTGTSPRLWIYNTSNLPSGVPARFSGSGSGTSYSLTISRMEAEDAATYYCQQRSSYPLTFGAGTKLELKR
notes: the variable domains are the same; also called murine ABIS-45RC; murine anti-hCD45RC antibody of the invention
Kd (human CD45RC [27]): 50 nM
koff (human CD45RC [27]): 0.0144 s⁻¹
kon (human CD45RC [27]): 291000 M⁻¹ s⁻¹
% of cells CD45RC+ [25]: 26.1%
% of cells CD45RC+ [26]: 74.1%

Next, values leading:

% of cells CD45RC+ [1]: 2.7%
% of cells CD45RC+ [2]: 4.37%
Molecule: Isotype (antibody)

% of cells CD45RC high (human CD45RC [3]): 38.8%
% of cells CD45RC low (human CD45RC [3]): 39.7%
% of cells CD45RC negative (human CD45RC [3]): 21.5%
% of cells CD45RC high (human CD45RC [4]): 9.3%
% of cells CD45RC low (human CD45RC [4]): 27.5%
% of cells CD45RC negative (human CD45RC [4]): 63.2%
% of cells CD45RC high (human CD45RC [5]): 0.47%
% of cells CD45RC low (human CD45RC [5]): 90.5%
% of cells CD45RC negative (human CD45RC [5]): 9.08%
% of cells CD45RC high (human CD45RC [6]): 0%
% of cells CD45RC low (human CD45RC [6]): 14.3%
% of cells CD45RC negative (human CD45RC [6]): 85.7%
% of cells CD45RC high (human CD45RC [7]): 0%
% of cells CD45RC low (human CD45RC [7]): 7.3%
% of cells CD45RC negative (human CD45RC [7]): 92.7%
% of cells CD45RC high (human CD45RC [8]): 1.84%
% of cells CD45RC low (human CD45RC [8]): 97.9%
% of cells CD45RC negative (human CD45RC [8]): 0.23%
% of cells CD45RC high (human CD45RC [9]): 50%
% of cells CD45RC low (human CD45RC [9]): 50%
% of cells CD45RC negative (human CD45RC [9]): 0%
% of cells CD45RC high (human CD45RC [10]): 0.091%
% of cells CD45RC low (human CD45RC [10]): 38.3%
% of cells CD45RC negative (human CD45RC [10]): 61.6%
% of cells CD45RC high (human CD45RC [11]): 0.43%
% of cells CD45RC low (human CD45RC [11]): 43.9%
% of cells CD45RC negative (human CD45RC [11]): 55.6%
% of cells CD45RC high (human CD45RC [12]): 3.52%
% of cells CD45RC low (human CD45RC [12]): 19.8%
% of cells CD45RC negative (human CD45RC [12]): 76.7%
% of cells CD45RC high (human CD45RC [13]): 1.93%
% of cells CD45RC low (human CD45RC [13]): 90.6%
% of cells CD45RC negative (human CD45RC [13]): 7.46%
% of cells CD45RC high (human CD45RC [14]): 34.4%
% of cells CD45RC low (human CD45RC [14]): 54.2%
% of cells CD45RC negative (human CD45RC [14]): 11.4%
% of cells CD45RC high (human CD45RC [15]): 79.9%
% of cells CD45RC low (human CD45RC [15]): 20.1%
% of cells CD45RC negative (human CD45RC [15]): 0%
% of cells CD45RC high (human CD45RC [16]): 28.6%
% of cells CD45RC low (human CD45RC [16]): 70.4%
% of cells CD45RC negative (human CD45RC [16]): 1%
% of cells CD45RC high (human CD45RC [17]): 24.1%
% of cells CD45RC low (human CD45RC [17]): 61.6%
% of cells CD45RC negative (human CD45RC [17]): 14.3%
% of cells CD45RC high (human CD45RC [18]): 7.43%
% of cells CD45RC low (human CD45RC [18]): 49.7%
% of cells CD45RC negative (human CD45RC [18]): 42.9%
% of cells CD45RC high (human CD45RC [19]): 8.34%
% of cells CD45RC low (human CD45RC [19]): 46.2%
% of cells CD45RC negative (human CD45RC [19]): 45.5%
% of cells CD45RC high (human CD45RC [20]): 0.014%
% of cells CD45RC low (human CD45RC [20]): 19.3%
% of cells CD45RC negative (human CD45RC [20]): 80.7%
% of cells CD45RC high (human CD45RC [21]): 45%
% of cells CD45RC low (human CD45RC [21]): 49.5%
% of cells CD45RC negative (human CD45RC [21]): 5.5%
% of cells CD45RC high (human CD45RC [22]): 5.89%
% of cells CD45RC low (human CD45RC [22]): 71%
% of cells CD45RC negative (human CD45RC [22]): 23.2%
% of cells CD45RC high (human CD45RC [23]): 3.64%
% of cells CD45RC low (human CD45RC [23]): 47.2%
% of cells CD45RC negative (human CD45RC [23]): 49.2%
% of cells CD45RC high (human CD45RC [24]): 6.45%
% of cells CD45RC low (human CD45RC [24]): 87.7%
% of cells CD45RC negative (human CD45RC [24]): 5.87%
Molecule: MT2 (antibody)
